Measurements: the DeepSol protein solubility set

Assay: soluble on expression in E. coli; label from the status in PepcDB or PDB records

Sequence	soluble on expression in E. coli
GPGSMTANSKPARFLALAAAKQGTTANVAFNALSVYAKMELSKQTNKMLKVHAATTPLVALIQKRTGIKAAAEAVRQTQTAAKATATVSSYDNSEINPQYIGADIAAKMEQMRKHESYGKIKKDGHTLSAPSTAKFPTAEDSTLRKITISVAVQVLCTGSSNSKWQISGKLEG	soluble
MALAEADDGAVVFGEEQEALVLKSWAVMKKDAANLGLRFFLKVFEIAPSAKQMFSFLRDSDVPLEKNPKLKTHAMSVFVMTCEAAAQLRKAGKVTVRETTLKRLGATHLRYGVADGHFEVTGFALLETIKEALPADMWSLEMKKAWAEAYSQLVAAIKREMKPDA	soluble
RSTMKYIRTLSAEIGILEGGNLDYRITVTGSDEMAVLAKGLDSMRESIRDKISQEAELIRLNQSMITGLSHDLRTPLTALLIYTEILKNEIDADRKQMQKWVLKIDEKAHQIKDMADCILNYSLLKKAAGPTALRQEPFRSVFYDSLSELCVCLEQKGFEVRPSLAWEDREICADSKYITRILDNICSNIIKYASCGDPIRIESFYQTDGCGLVFENKKSANQTQAESTGIGVRNIREMMEEMGGCCEAEETSEDYRIRLTFACSPAV	not soluble
MGSDKIHHHHHHMNMNREQLKFCLLGAVFLFGGCTASDPRTHLDSSADTLFQITPDQNHAALERQSGTDQYLKLLLNVAEDAEVKEVQVKPGLVSKDTATLSMPLTDGRTVSFKLSRSDSVASGMVGWVGDMPSNRRQLYPSPAEIDMDPLNWVSLVSDGNLVVGDIRVDGQLYRLTAVGKGQQVLVKVDESKLPPEAAPIPVPVQAQEKTRSLSTSQSRKSTIRVLFVTTHQSRAMFPNYKIELAQALQNANQYLINSKVDAVYELSDIYDSDYDETGKSPQTQLSDMKADKPFGAKIHIEREKGRADLVSMLSTFSIYCGIANLTASVERAFSAISCFGSLGHELGHNMGAGHKDEAPVASLPPYAYGYQHTAPNFHTQMRTSNGAIPYHSNPRLQYQGVPMGTVDKNDVARTFNENRDTVANFYPDPAHRVRLWLYGANRGCFIDLKPGEQALLSWFTECKDNDVNPVRVEVKDFYSGSTPRKLCFANIFYTVNSCYTGSNFSGDFVITSVHTGGGKPEGFKFTRRLIGPVYRVSYE	not soluble
SSEWMKKGPLEWQDYIYKEVRVTASEKNEYKGWVLTTDPVSANIVLVNFLEDGSMSVTGIMGHAVQTVETMNEGDHRVREKLMHLF	soluble
MSATAGRVVRAGQHAVRTVAPIKSNNSAEARMSVLAAYKEFQRLTPKFWWDFGLHDMPLGVFRAVIKKQFTKNGHLTDVRVVDRLVGETHQHMKSIRYAFYNPDHVRNYLFAENVEAKPKDFLSKFLNGKE	not soluble
MDTSSSCKAFLLDSALAVKWPRDKETAPRLPQHRGWNPGDAPQTSQGRGTGTPVGAETKTLPSTDVAQPPSDSDAVGPRSGFPPQPSLPLCRAPGQLGEKQLPSSTSDDRVKDEFSDLSEGDVLSEDENDKKQNAQSSDESFEPYPERKVSGKKSESKEAKKSEEPRIRKKPGPKPGWKKKLRCEREELPTIYKCPYQGCTAVYRGADGMKKHIKEHHEEVRERPCPHPGCNKVFMIDRYLQRHVKLIHTEVRNYICDECGQTFKQRKHLLVHQMRHSGAKPLQCEVCGFQCRQRASLKYHMTKHKAETELDFACDQCGRRFEKAHNLNVHMSMVHPLTQTQDKALPLEAEPPPGPPSPSVTTEGQAVKPEPT	soluble
EILAKDQEAFMQSAKFLKEGKILAIKGIGGFHLMCDAFNEEALKTLRLRKNRPKKPFALMCKDLQSAKELAFIDEKEEALLGGVLAPIVILKAKKAFSLIAPDVDKIGIMLAYTPLHLLLFEYFKGSLVATSANLSGESIIKDEFNLCKKLDKVFDFYLDYDREIINASDDSIAQVVNGETMFLRTSR	not soluble
MSTKLTGYVWDGCAASGMKLSSVAIMARLADFSNDEGVCWPSIETIARQIGAGMSTVRTAIARLEAEGWLTRKARRQGNRNASNVYQLNVAKLQAAAFSQLSDSDPSKSDASKSDPSKFDASKSGKKAGFHPSESGGDPSVKSKHDPSDKKPSRPDSSQPDTQTAEQDFLTRHPDAVVFSPKKRQWGTQDDLTCAQWLWKKIIALYEQAAECDGEVVRPKEPNWTAWANEIRLMCVQDGRTHKQICEMYSRVSRDPFWCRNVLSPSKLREKWDELSLRLSPSVSTYTEKREDPYFKASYDNVDYSQIPAGFRG	not soluble
MGSDKIHHHHHHMLEREGIEISLRTIQRDLNQIAQRFPIESNKAVPQGWRWQSDAPIQSLPHMTSSQAVTFMMVEEHLKHLLPPSLLDEMGPWFDLAKRSLSTQNNVRQWINRVRIVPASQPLIPPVVDRAAQQAIYEGLLQDKQIECVYRARVNQGEDKTYILNPLALVQKGAVIYLICTRHDKTEVQTFALHRFKSAKVLESRALHPVNFDIDHYIDSGALGFRVDYNQPTESIQLTLTMTEQTAKTFYESQLSKDQTITPIEENIVEVTATVPFTSQLVWWLRSFGKKLLHIEPVQVHNAVREIEPDSK	not soluble
MALHTVLIILSLLPMLEAQNPEHANFTIGEPITNETLSWLSDKWFFMGAAFRKLEYRQAIQTMQSEFFYLTTNLINDTIELRESQTIGDQCVYNSTHLGFQRENGTFSKYEGGVETFAHLIVLRKHGAFMLAFDLKDEKKRGLSLYAKRPDITPELQEVFQKAVTHVGMDESEIIFVDWKKDRCGQQEKKQLELGKETKKDPEEGQA	soluble
MGSDKIHHHHHHMKMSEKKEARVVINDLLAEQYANAFKAKEEGRPVGWSTSVFPQELAEVFDLNVLYPENQAAGVAAKKGSLELCEIAESKGYSIDLCAYARTNFGLLENGGCEALDMPAPDFLLCCNNICNQVIKWYENISRELDIPLIMIDTTFNNEDEVTQSRIDYIKAQFEEAIKQLEIISGKKFDPKKFEEVMKISAENGRLWKYSMSLPADSSPSPMNGFDLFTYMAVIVCARGKKETTEAFKLLIEELEDNMKTGKSSFRGEEKYRIMMEGIPCWPYIGYKMKTLAKFGVNMTGSVYPHAWALQYEVNDLDGMAVAYSTMFNNVNLDRMTKYRVDSLVEGKCDGAFYHMNRSCKLMSLIQYEMQRRAAEETGLPYAGFDGDQADPRAFTNAQFETRIQGLVEVMEERKKLNRGEI	not soluble
MGHHHHHHSHMELKQSLSTHLEAEKPLRRYGAVEETAWKTERLGRNQLDIISMAETTMMPEEIELEMAKIQRLREVLVRRESELRFMMDDIQLCKDIMDLKQELQNLVAIPEKEKTKLQKQREDELIQKIHKLVQKRDFLVDDAEVERLREQEEDKEMADFLRIKLKPLDKVTKSPASSRAEKKAEPPPSKPTVAKTGLALIKDCCGATQCNIM	soluble
MGSDKIHHHHHHMSRLVVKNLTKIFSLGFFSKRRIEAVKNVSFEVKEKEIVSLVGESGSGKTTTAKMILRLLPPTSGEIYFEGKDIWKDIKDRESLVEFRRKVHAVFQDPFASYNPFYPVERTLWQAISLLENKPSNKKEALELIKESLFRVGIDPKDVLGKYPHQISGGQKQRIMIARCWILRPLLIVADEPTSMIDASSRGGIIKLLEELREEQGTSIIFITHDLGLAYYVSDNIFVMKNGEIVERGHPDKVVLEPTHEYTKLLVGSIPKLYRKLEDL	not soluble
MSNGRAVNGFLLDITGVLYNSIYKSDGVAVPKSAEAVNFLYQHSKVKFLSNAKGNSNRNVARRLQRLGINVREEDVITPAPVVAQYCRENKLRPHLFVRDDVLEYFDGIDTSSPNCVVMGEVEEGFSFDRINRAFRILIDMPKPLLITMGNGKFFQRVDGPCIDVGAFAAALKFSTNCEVLNIGKPSRFYFEQGMNALGMKPEEIVMVGDDLMSDVGGAQACGMRGVQVRTGKWRPDFEKMPVTPDLTADCLYDAVKLIADNGFRL	not soluble
MGSSHHHHHHSSGLVPRGSHMSLKHFLNTQDWSRAELDALLTQAALFKRNKLGSELKGKSIALVFFNPSMRTRTSFELGAFQLGGHAVVLQPGKDAWPIEFNLGTVMDGDTVEHIAEVARVLGRYVDLIGVRAFPKFVDWSKDREDQVLKSFAKYSPVPVINMETITHPCQELAHALALQEHFGTPDLRGKKYVLTWTYHPKPLNTAVANSALTIATRMGMDVTLLCPTPDYILDERYMDWAAQNVAESGGSLQVSHDIDSAYAGADVVYAKSWGALPFFGNWEPEKPIRDQYQHFIVDERKMALTNNGVFSHCLPLRRNVKATDAVMDSPNCIAIDEAENRLHVQKAIMAALVGQSRP	soluble
MEGVKKIKNPSTVKDELLELMFRIYRSTNGKYPALEWVKRKPNPNDFNGFREVYEPFLKFRLSQEFDELYTYQKDNRIIGTIALVYKRIKEKGIWWVPEELMNEKVGLIEFFVVDPEFQGKGIGSTLLEFAVKRLRSLGKDPYVVTFPNLEAYSYYYMKKGFREIMRYKEFVILKFNHKKFQLEHHHHHH	soluble
MKGGCVSQWKAAAGFLFCVMVFASAERPVFTNHFLVELHKGGEDKARQVAAEHGFGVRKLEHHHHHH	not soluble
SEQHAQGADAVVDLNNELKTRREKLANLREQGIAFPNDFRRDHTSDQLHAEFDGKENEELEALNIEVAVAGRMMTRRIMGKASFVTLQDVGGRIQLYVARDDLPEGVYNEQFKKWDLGDILGAKGKLFKTKTGELSIHCTELRLLTKALRPLPDKFHGLQDQEARYRQRYLDLISNDESRNTFKVRSQILSGIRQFMVNRGFMEVETPMMQVIPGGAAARPFITHHNALDLDMYLRIAPELYLKRLVVGGFERVFEINRNFRNEGISVRHNPEFTMMELYMAYADYKDLIELTESLFRTLAQDILGKTEVTYGDVTLDFGKPFEKLTMREAIKKYRPETDMADLDNFDSAKAIAESIGIHVEKSWGLGRIVTEIFEEVAEAHLIQPTFITEYPAEVSPLARRNDVNPEITDRFEFFIGGREIGNGFSELNDAEDQAQRFLDQVAAKDAGDDEAMFYDEDYVTALEHGLPPTAGLGIGIDRMVMLFTNSHTIRDVILFPAMRPVK	soluble
MHHHHHHSSGVDLGTENLYFQSMVDATRVPMDERFRTLKKKLEEGMVFTEYEQIPKKKANGIFSTAALPENAERSRIREVVPYEENRVELIPTKENNTGYINASHIKVVVGGAEWHYIATQGPLPHTCHDFWQMVWEQGVNVIAMVTAEEEGGRTKSHRYWPKLGSKHSSATYGKFKVTTKFRTDSVCYATTGLKVKHLLSGQERTVWHLQYTDWPDHGCPEDVQGFLSYLEEIQSVRRHTNSMLEGTKNRHPPIVVHCSAGVGRTGVLILSELMIYCLEHNEKVEVPMMLRLLREQRMFMIQTIAQYKFVYQVLIQFLQNSRLI	soluble
MAWASPDGHCTVEHSADSVHLWRFEHSVYDGFDTHWTATFTPEVPERLVAQFFTHLATTTPVERVFRDVPYLVQSLDAALITPVNRAAVNPHVHHAGAQLGRAVHRRLEHHHHHH	not soluble
MSFFHASQRDALNQSLAEVQGQINVSFQFFPPRTSEMEQTLWNSIDRLSSLKPKFVSVTYGANSGERDRTHSIIKGIKDRTGLEAAPHLTCIDATPDELRTIARDYWNNGIRHIVALRGDLPPGSGKPEMYASDLVTLLKEVADFDISVAAYPEVHPEAKSAQADLLNLKRKVDAGANRAITQFFFDVESYLRFRDRCVSAGIDVEIIPGILPVSNFKQAKKFADMTNVRIPAWMAQMFDGLDDDAETRKLVGANIAMDMVKILSREGVKDFHFYTLNRAEMSYAICHTLGVRPGLLEHHHHHH	soluble
